# Biological target: recombinant Shiga toxin-2a B subunit (rStx2aB), C-terminal 6xHis tag (E. coli O157:H7 strain EDL933)
# Experiment: SEC; rStx2aB on Superdex-75 16/60 in PBS, 1 mL/min
substance,measurement,value
"recombinant Shiga toxin-2a B subunit (rStx2aB), C-terminal 6xHis tag (domain or fragment)",stoichiometry N,5
